This is an account of results in the supplement of paper PMC11316812.

The test system of one series is MCF7. Briefly: percentage of EdU-negative (G0-arrested) nuclei per well, 72 h; higher = more G0 arrest. The conditions noted are these: reference: sequence is the full UniProt precursor, the tested protein was the secreted form or ectodomain.
For the next series, the system named is hTERT-HMEC. The series is described as above. The conditions noted are these: reference: sequence is the full UniProt precursor, the tested protein was the secreted form or ectodomain.
The mark [1] stands for this setting: protein concentration 0.03125 µM.
Where [2] appears, read: protein concentration 0.3125 µM.
[3] abbreviates: protein concentration 0.0225 µM.
[4] abbreviates: protein concentration 0.025165 µM.
Where [5] appears, read: protein concentration 0.25165 µM.

± gives the standard deviation of the averaged measurements.
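Also: secreted proteins added to cultured cells, EdU pulse at the end, nuclei found by Hoechst imaging, EdU status from nuclear versus surrounding ring intensity ratio, PBS as neutral control.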

For “MLSCRLQCALAALSIVLALGCVTGAPSDPRLRQFLQKSLAAAAGKQELAKYFLAELLSEPNQTENDALEPEDLSQAAEQDEMRLELQRSANSNPAMAPRERKAGCKNFFWKTFTSC”, the “percentage of EdU-negative” value amounted to 25.9 ± 3.1% in the series with MCF7 (setting [1]), 27 ± 1.9% with MCF7 (setting [2]), 5.72 ± 0.93% with hTERT-HMEC (setting [1]) and 4.88 ± 0.35% in the series on hTERT-HMEC (setting [2]).

In the case of “MMWPMHTPLLLLTALMVAVAGSASAQSRTLAGGIHATDLNDKSVQCALDFAISEYNKVINKDEYYSRPLQVMAAYQQIVGGVNYYFNVKFGRTTCTKSQPNLDNCPFNDQPKLKEEEFCSFQINEVPWEDKISILNYKCRKV”, the “percentage of EdU-negative” value in the series with MCF7 (setting [3]) is 25.28 ± 0.24%; in the series on MCF7 (protein concentration 0.225 µM), 25.3 ± 2%; with hTERT-HMEC (setting [3]), 4.35 ± 0.28%; with hTERT-HMEC (protein concentration 0.225 µM) it was 6.17 ± 0.2%.

Take “MKGSIFTLFLFSVLFAISEVRSKESVRLCGLEYIRTVIYICASSRWRRHQEGIPQAQQAETGNSFQLPHKREFSEENPAQNLPKVDASGEDRLWGGQMPTEELWKSKKHSVMSRQDLQTLCCTDGCSMTDLSALC [Q9Y5Q6]”: the “percentage of EdU-negative” value with MCF7 (setting [3]) worked out at 25.5 ± 2.3%; in the series with MCF7 (protein concentration 0.225 µM) it was 27.6 ± 3%; in the series on hTERT-HMEC (setting [3]), 5.011 ± 0.042%; in the series with hTERT-HMEC (protein concentration 0.225 µM) it was 4.97 ± 0.86%.

As to “MASTSYDYCRVPMEDGDKRCKLLLGIGILVLLIIVILGVPLIIFTIKANSEACRDGLRAVMECRNVTHLLQQELTEAQKGFQDVEAQAATCNHTVMALMASLDAEKAQGQKKVEELEGEITTLNHKLQDASAEVERLRRENQVLSVRIADKKYYPSSQDSSSAAAPQLLIVLLGLSALLQ”, the “percentage of EdU-negative” value in the series on MCF7 (setting [3]) amounted to 26.3 ± 3.5%; in the series on MCF7 (protein concentration 0.225 µM), 26.7 ± 3.2%; in the series with hTERT-HMEC (setting [3]), 4.74 ± 0.69%; with hTERT-HMEC (protein concentration 0.225 µM) it was 4.84 ± 0.58%.

On to P32881, for which the “percentage of EdU-negative” value in the series with MCF7 (setting [1]) stood at 46 ± 0.63%; with MCF7 (setting [2]), 49.3 ± 0.71%; in the series on hTERT-HMEC (setting [1]), 25.9 ± 1.2%; in the series with hTERT-HMEC (setting [2]), 30.4 ± 4.1%.

Take “MKGWGWLALLLGALLGTAWARRSQDLHCGACRALVDELEWEIAQVDPKKTIQMGSFRINPDGSQSVVEVPYARSEAHLTELLEEICDRMKEYGEQIDPSTHRKNYVRVVGRNGESSELDLQGIRIDSDISGTLKFACESIVEEYEDELIEFFSREADNVKDKLCSKRTDLCDHALHISHDEL [Q9Y2B0]”: the “percentage of EdU-negative” value is 23.4 ± 3.1% with MCF7 (setting [3]), 25.3 ± 1.3% in the series with MCF7 (protein concentration 0.225 µM), 5.14 ± 0.16% in the series with hTERT-HMEC (setting [3]) and 6.74 ± 0.6% in the series on hTERT-HMEC (protein concentration 0.225 µM).

For “MPACRLGPLAAALLLSLLLFGFTLVSGTGAEKTGVCPELQADQNCTQECVSDSECADNLKCCSAGCATFCSLPNDKEGSCPQVNINFPQLGLCRDQCQVDSQCPGQMKCCRNGCGKVSCVTPNF”, the “percentage of EdU-negative” value amounted to 25.2 ± 0.76% with MCF7 (setting [4]), 25.3 ± 0.99% in the series with MCF7 (setting [5]), 4.52 ± 0.38% with hTERT-HMEC (setting [4]) and 4.9 ± 0.49% with hTERT-HMEC (setting [5]).

In the case of “MNNLLCCALVFLDISIKWTTQETFPPKYLHYDEETSHQLLCDKCPPGTYLKQHCTAKWKTVCAPCPDHYYTDSWHTSDECLYCSPVCKELQYVKQECNRTHNRVCECKEGRYLEIEFCLKHRSCPPGFGVVQAGTPERNTVCKRCPDGFFSNETSSKAPCRKHTNCSVFGLLLTQKGNATHDNICSGNSESTQKCGIDVTLCEEAFFRFAVPTKFTPNWLSVLVDNLPGTKVNAESVERIKRQHSSQEQTFQLLKLWKHQNKDQDIVKKIIQDIDLCENSVQRHIGHANLTFEQLRSLMESLPGKKVGAEDIEKTIKACKPSDQILKLLSLWRIKNGDQDTLKGLMHALKHSKTYHFPKTVTQSLKKTIRFLHSFTMYKLYQKLFLEMIGNQVQSVKISCL”, the “percentage of EdU-negative” value amounted to 22.2 ± 1.3% in the series with MCF7 (protein concentration 0.034 µM), 29.5 ± 1% with MCF7 (protein concentration 0.34 µM), 4.98 ± 0.78% in the series with hTERT-HMEC (protein concentration 0.034 µM) and 8.17 ± 0.14% in the series on hTERT-HMEC (protein concentration 0.34 µM).

Turning to “MWKRWLALALALVAVAWVRAEEELRSKSKICANVFCGAGRECAVTEKGEPTCLCIEQCKPHKRPVCGSNGKTYLNHCELHRDACLTGSKIQVDYDGHCKEKKSVSPSASPVVCYQSNRDELRRRIIQWLEAEIIPDGWFSKGSNYSEILDKYFKNFDNGDSRLDSSEFLKFVEQNETAINITTYPDQENNKLLRGLCVDALIELSDENADWKLSFQEFLKCLNPSFNPPEKKCALEDETYADGAETEVDCNRCVCACGNWVCTAMTCDGKNQKGAQTQTEEEMTRYVQELQKHQETAEKTKRVSTKEI”, the “percentage of EdU-negative” value turned out to be 25.7 ± 0.72% with MCF7 (setting [1]), 26.2 ± 3.6% with MCF7 (setting [2]), 4.68 ± 0.16% in the series on hTERT-HMEC (setting [1]) and 5.53 ± 0.92% in the series with hTERT-HMEC (setting [2]).
